Source: article PMC9318647, “Human and Bacterial Toll-Interleukin Receptor Domains Exhibit Distinct Dynamic Features and Functions” (Molecules, 2022)

B2: human TLR1 TIR domain (TLR1-TIR), residues 625-786, untagged (domain or fragment, UniProt Q15399 625-786, looked up)
chain: NIPLEELQRNLQFHAFISYSGHDSFWVKNELLPNLEKEGMQICLHERNFVPGKSIVENIITCIEKSYKSIFVLSPNFVQSEWCHYELYFAHHNLFHEGSNSLILILLEPIPQYSIPSSYHKLKSLMARRTYLEWPKEKSKRGLFWANLRAAINIKLTEQAKK
notes: human TLR1, NCBI NP_003254.2, the entire intracellular TIR region of residues 625-786; Elutes as distinct dimer and monomer peaks on Superose-12; also called untagged TLR1-TIR

Experiments:
[1] = biological target: Acinetobacter junii TIR protein (tirA), full length (Acinetobacter junii); experiment: SEC; analytical sizing of the full-length bacterial TIR-containing proteins, their CC domains and TIR constructs; sample loads 200 μM, except tirS-TIR E216A 20 μM and tirA-TIR E206A 50 μM
[2] = biological target: Enterococcus TIR protein (tirE), full length (Enterococcus); experiment: as above
[3] = biological target: tirA coil-coil (CC) domain (Acinetobacter junii); experiment: as above
[4] = biological target: tirE coil-coil (CC) domain (Enterococcus); experiment: as above
[5] = biological target: tirS coil-coil (CC) domain (Staphylococcus aureus); experiment: as above
[6] = biological target: the molecule itself; experiment: as above
[7] = biological target: the molecule itself; experiment: SEC; analytical Superose-12; 50 mM Na2HPO4, pH 6.5, 150 mM NaCl, 1 mM DTT; TLR1-TIR and TLR2-TIR also after 30 min in 50 mM DTT (homodimers minimized)
[8] = biological target: human TLR2 TIR domain (TLR2-TIR), residues 633-784, untagged (human) (UniProt O60603); experiment: as above
[9] = biological target: B2; experiment: NMR titration; 15N-TLR2-TIR at 308 μM, unlabeled partner added (TLR1-TIR 308, 616, 924 μM; full-length tirA 308 μM); 15N-HSQC; global fit of several resonances; conditions: both partners purified

“Acinetobacter junii TIR protein (tirA), full length (natural protein)” was tested, and the stoichiometry N [1] was 2.

“Enterococcus TIR protein (tirE), full length (natural protein)” showed a stoichiometry N [2] of 2.

“tirA coil-coil (CC) domain (domain or fragment)” was tested, and the stoichiometry N [3] was 2.

In the case of “tirE coil-coil (CC) domain (domain or fragment)”, the stoichiometry N [4] is reported as 2.

In the case of “tirS coil-coil (CC) domain (domain or fragment)”, the stoichiometry N [5] is reported as 2.

B1: Staphylococcus aureus TIR protein (tirS), full length (natural protein)
chain: MSVLETKLKSQMSKSAKIARNMNKLPDEIDRLRKRIERINKKRKPTSSNIRDLEKSNKQLVTKQQKLADLQVEYTKIEKKINETKINLQKEQSRNQKKLSSMLDKNTKGNEEIMEKLLTNSDQINEISNQIKKAVNQKEIIEYDVFLSHSSLDKEDYVSKISEKLIEKGLKVFEDVKVFEIGKSQTETMNMGILNSRFVVVFLSPNFIESGWSRYEFLSFLNREINEEHVIILPIWHKVSVEDVRAYNPYLVDKYALNTSDFSIEEIVEKIYQVIVNSKN
notes: Staphylococcus aureus TIR protein (tirS), NCBI WP_000114516.1, full length (CC domain and TIR domain); also called full-length tirS
With B1 the “stoichiometry N” value [6] was 2.

With B2 the “stoichiometry N” value [7] was 2.

B3: human TLR2 TIR domain (TLR2-TIR), residues 633-784, untagged (domain or fragment, UniProt O60603 633-784, looked up)
chain: KAPSRNICYDAFVSYSERDAYWVENLMVQELENFNPPFKLCLHKRDFIPGKWIIDNIIDSIEKSHKTVFVLSENFVKSEWCKYELDFSHFRLFDENNDAAILILLEPIEKKAIPQRFCKLRKIMNTKTYLEWPMDEAQREGFWVNLRAAIKS
notes: human TLR2, NCBI NP_001305716.1, the entire intracellular TIR region of residues 633-784; 15N-labelled in the NMR experiments; Elutes as distinct dimer and monomer peaks on Superose-12; also called 15N-TLR2-TIR
For B3, the stoichiometry N [8] was 2 and the Kd [9] was 760 ± 230 µM.
